The target of series [1] is T1, MsRuvC WT (Mycobacterium smegmatis mc2 155) (UniProt A0QWH4).
T1 sequence: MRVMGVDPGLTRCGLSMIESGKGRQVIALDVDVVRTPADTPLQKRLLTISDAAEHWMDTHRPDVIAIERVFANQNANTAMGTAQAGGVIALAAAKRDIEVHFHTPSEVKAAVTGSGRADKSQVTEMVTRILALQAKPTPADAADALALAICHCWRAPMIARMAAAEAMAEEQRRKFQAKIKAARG
Kind of series: SPR.

The next series addresses T2, MsRuvC-D7A (Mycobacterium smegmatis mc2 155, UniProt A0QWH4 1-185, D7A).
T2 sequence: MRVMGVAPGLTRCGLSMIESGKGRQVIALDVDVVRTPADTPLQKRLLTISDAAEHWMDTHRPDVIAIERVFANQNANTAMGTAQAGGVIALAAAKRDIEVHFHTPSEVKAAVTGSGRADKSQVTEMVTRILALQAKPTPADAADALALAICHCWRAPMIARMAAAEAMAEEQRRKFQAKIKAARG
Kind of series: MST.

For a further series, the target named is T3, MsRuvC-E68A (Mycobacterium smegmatis mc2 155, UniProt A0QWH4 1-185, E68A).
T3 sequence: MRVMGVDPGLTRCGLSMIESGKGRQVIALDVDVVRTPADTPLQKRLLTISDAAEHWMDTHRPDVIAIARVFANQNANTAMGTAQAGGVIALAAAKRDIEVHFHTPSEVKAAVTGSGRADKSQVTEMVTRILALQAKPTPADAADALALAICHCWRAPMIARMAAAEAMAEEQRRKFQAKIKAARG
The experiment in a line: MST.

The target in the next series is T4, MsRuvC WT (Mycobacterium smegmatis mc2 155, UniProt A0QWH4 1-185).
T4 sequence: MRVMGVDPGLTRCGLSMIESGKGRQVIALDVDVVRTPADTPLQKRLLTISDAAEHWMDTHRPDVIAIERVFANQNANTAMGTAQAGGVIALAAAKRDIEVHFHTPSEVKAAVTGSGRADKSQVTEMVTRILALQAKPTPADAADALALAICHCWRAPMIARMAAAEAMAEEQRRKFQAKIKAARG
Kind of series: MST.

The series “SEC” concerns the molecule itself. The experiment in a line: SEC.

The molecule 3'-flap structure (SPR) registered a Kd in series [1] of 296 nM. On the same count and under the same terms, with 5'-flap structure the figure was 410 nM; with Replication fork, 203 nM; with Splayed-arm duplex, 480 nM. The same measure, in the same setting: with dsDNA with 3'-ssDNA overhang the figure was 263 nM. In series [1], dsDNA with 5'-ssDNA overhang had a Kd of 201 nM. The Kd values of the last two molecules are within 1.5-fold of each other.

B1: Mobile HJ (MST) (structured_DNA)
DNA 1: GACGCTGCCGAATTCTACCAGTGCCTTGCTAGGACATCTTTGCCCACCTGCAGGTTCACCC
DNA 2: TGGGTGAACCTGCAGGTGGGCAAAGATGTCCTAGCAATGTAATCGTCAAGCTTTATGCCGTT
DNA 3: CAACGGCATAAAGCTTGACGATTACATTGCTAGGACATGCTGTCTAGAGGATCCGACTATCGA
DNA 4: ATCGATAGTCGGATCCTCTAGACAGCATGTCCTAGCAAGGCACTGGTAGAATTCGGCAGCGT
For B1, the Kd with MsRuvC-D7A was 650 ± 170 nM; with MsRuvC-E68A it was 300 ± 110 nM; with MsRuvC WT, 580 ± 270 nM.

B2: Mycobacterium smegmatis RuvC (enzyme)
chain: MRVMGVDPGLTRCGLSMIESGKGRQVIALDVDVVRTPADTPLQKRLLTISDAAEHWMDTHRPDVIAIERVFANQNANTAMGTAQAGGVIALAAAKRDIEVHFHTPSEVKAAVTGSGRADKSQVTEMVTRILALQAKPTPADAADALALAICHCWRAPMIARMAAAEAMAEEQRRKFQAKIKAARG
B2: in the series “SEC”, the “stoichiometry N” value amounted to 2.

B3: MsRuvC-E68A (enzyme)
chain: MRVMGVDPGLTRCGLSMIESGKGRQVIALDVDVVRTPADTPLQKRLLTISDAAEHWMDTHRPDVIAIARVFANQNANTAMGTAQAGGVIALAAAKRDIEVHFHTPSEVKAAVTGSGRADKSQVTEMVTRILALQAKPTPADAADALALAICHCWRAPMIARMAAAEAMAEEQRRKFQAKIKAARG
As for B3, the “stoichiometry N” value in “SEC” was 2.

B4: MsRuvC-D7A (enzyme)
chain: MRVMGVAPGLTRCGLSMIESGKGRQVIALDVDVVRTPADTPLQKRLLTISDAAEHWMDTHRPDVIAIERVFANQNANTAMGTAQAGGVIALAAAKRDIEVHFHTPSEVKAAVTGSGRADKSQVTEMVTRILALQAKPTPADAADALALAICHCWRAPMIARMAAAEAMAEEQRRKFQAKIKAARG
Regarding B4, the “stoichiometry N” value in the series “SEC” was 2.

As usually defined, the Kd is the equilibrium constant for the complex coming apart. Read a low Kd as higher affinity. One may read the stoichiometry N as the number of molecules, sites or subunits per partner or assembly.

These data come from PMC11466669 (The Journal of Biological Chemistry, 2024).
